# From publication PMC4644223
# T1: Snf7 labeled with Alexa488 (yeast), P39929
# T1 chain: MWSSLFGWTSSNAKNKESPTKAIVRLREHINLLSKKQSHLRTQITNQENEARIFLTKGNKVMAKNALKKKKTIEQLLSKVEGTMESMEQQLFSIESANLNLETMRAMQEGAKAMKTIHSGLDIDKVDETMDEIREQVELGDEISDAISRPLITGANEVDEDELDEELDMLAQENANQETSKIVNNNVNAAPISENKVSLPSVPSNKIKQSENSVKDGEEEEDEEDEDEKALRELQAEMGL
# T2: Snf7 (yeast), P39929
# T2 chain: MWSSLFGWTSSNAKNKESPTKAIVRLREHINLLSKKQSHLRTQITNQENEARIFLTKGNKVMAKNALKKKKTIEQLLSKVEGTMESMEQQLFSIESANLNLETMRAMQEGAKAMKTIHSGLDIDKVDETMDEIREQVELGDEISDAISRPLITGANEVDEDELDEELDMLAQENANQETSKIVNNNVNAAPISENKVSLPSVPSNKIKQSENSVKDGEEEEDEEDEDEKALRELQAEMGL
# Tests used:
# [1] = target: T1, Snf7 labeled with Alexa488 (yeast), …; assay: TIRF microscopy with counting of molecules by fluorescence intensity; settings: remark: other sources report otherwise
# Snf7 (yeast), P39929 = target: T2, Snf7 (yeast), P39929; assay: high-speed atomic force microscopy; settings: remark: other sources report otherwise
stoichiometry N [1] [monomers],"filament growth rate (subunits.s^−1.μM^−1) (Snf7 (yeast), P39929)",Binder
50,–,"Snf7 labeled with Alexa488, P39929 1-240 (natural protein, here or on the partner: Alexa488 label (TFP-Alexa-488), site not stated; Alexa488 label (TFP-Alexa-488), site not stated) MWSSLFGWTSSNAKNKESPTKAIVRLREHINLLSKKQSHLRTQITNQENEARIFLTKGNKVMAKNALKKKKTIEQLLSKVEGTMESMEQQLFSIESANLNLETMRAMQEGAKAMKTIHSGLDIDKVDETMDEIREQVELGDEISDAISRPLITGANEVDEDELDEELDMLAQENANQETSKIVNNNVNAAPISENKVSLPSVPSNKIKQSENSVKDGEEEEDEEDEDEKALRELQAEMGL"
–,3,"Snf7, P39929 1-240 (natural protein) MWSSLFGWTSSNAKNKESPTKAIVRLREHINLLSKKQSHLRTQITNQENEARIFLTKGNKVMAKNALKKKKTIEQLLSKVEGTMESMEQQLFSIESANLNLETMRAMQEGAKAMKTIHSGLDIDKVDETMDEIREQVELGDEISDAISRPLITGANEVDEDELDEELDMLAQENANQETSKIVNNNVNAAPISENKVSLPSVPSNKIKQSENSVKDGEEEEDEEDEDEKALRELQAEMGL"
